Experimental data published in patent US7985736B2, “High throughput screen utilizing newly discovered intramolecular neuronal calcium channel interactions to discover new analgesics” (The John Hopkins University, priority 2004, dated 2011).

Assays:
Gβ1 = biological target: T1, Gβ1 (Bos taurus, UniProt P62871); experiment: Yeast two-hybrid assay, channel fragments versus Gβ1; format: binding; details: Gβ1 in pGADT7, channel fragment in pGBKT7
T1 construct: expressed in transfected cells; host or cells: AH109 yeast
T1 sequence (P62871 whole entry, the tested form may be a part): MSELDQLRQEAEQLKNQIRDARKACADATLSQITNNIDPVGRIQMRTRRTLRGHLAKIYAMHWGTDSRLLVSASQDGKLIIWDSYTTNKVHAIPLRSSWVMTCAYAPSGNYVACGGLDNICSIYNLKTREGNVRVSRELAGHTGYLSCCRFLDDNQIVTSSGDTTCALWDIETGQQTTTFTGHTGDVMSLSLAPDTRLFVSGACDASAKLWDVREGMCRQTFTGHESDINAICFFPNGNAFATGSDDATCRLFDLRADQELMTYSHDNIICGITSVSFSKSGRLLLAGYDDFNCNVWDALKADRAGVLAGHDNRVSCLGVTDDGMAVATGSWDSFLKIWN
Excerpt: For yeast two-hybrid assays, a PCR fragment encoding one partner was fused, in-frame, with the GAL4 DNA binding domain (BD) in pGBKT7 (Clontech, Palo Alto, Calif.). The other element was fused, in-frame, with the GAL4 activation domain (AD) in pGADT7. For specific residues, see Supplemental Data (section 2). For electrophysiology, NT peptides lacking fluorophore tag were PCR amplified and cloned in pcDNA3. NTB peptide residues, 1-95; NTC residues, […]. Throughout, all segments subject to PCR or QuikChange were verified in their entirety by sequencing.
The Matchmaker GAL4 Two-Hybrid System 3 was used (Clontech, Palo Alto, Calif.). AH109 yeast were transformed with pGBKT7/pGADT7-based constructs (Yeastmaker Yeast Transformation System 2 kit, Clontech). After 5-8 days, growth on -leucine/-trytophan plates confirmed transformation of both plasmids. If partners interact, GAL4 BD/AD would complex, activating reporter genes (HIS3, ADE2, lacZ, and MEL1), for which assays are detailed in the Supplemental Data (section 2.1).
As a ‘medium’ stringency assay, expression of the lacZ gene was tested for encoding β-galactosidase, performing a filter lift with application of blue chromogenic substrate (Clontech-Laboratories, 1999). After the filter lift, original plates were re-grown for 2-3 days at 30° C. Filter paper was then used to replicate colonies onto a high stringency plate (-adenine/-histidine/-leucine/-trytophan). These plates were then incubated at 30° C. for 5-8 days. Survival on high stringency plates indicates production of both adenine and histidine, from transcription of the ADE2 and HIS3 genes, respectively. The percentage of colonies that turned blue in the filter lift assay, along with the percentage of colonies that survived on high stringency plates, was recorded for each pairing. Experiments were repeated at least three times. False positives were controlled for by testing each segment in pGBKT7 against empty pGADT7, and each segment in pGADT7 against lamin C in pGBKT7 (lamin C interacts with few proteins). […]

I-IIC = biological target: T2, I-IIC (Oryctolagus cuniculus, UniProt P15381); experiment: Live-cell FRET two-hybrid assay versus I-IIC in HEK293 cells; format: binding, rabbit; details: compared with NTB/I-IIB pair
T2 construct: I-IIC residues, 436-554; expressed in transfected cells; host or cells: HEK293
T2 sequence (P15381 436-554): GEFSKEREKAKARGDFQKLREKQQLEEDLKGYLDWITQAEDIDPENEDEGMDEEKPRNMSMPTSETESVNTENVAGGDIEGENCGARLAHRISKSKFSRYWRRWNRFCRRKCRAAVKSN
Excerpt: To confirm preferential interaction of NTB with I-IIB a live-cell FRET two-hybrid assay was used (Erickson et al., 2003), in which NTB, NTC, I-IIB, and I-IIC were fused to either CFP or YFP, and the resulting fusion constructs expressed pair-wise in mammalian HEK293 cells. Given a Forster distance of ˜50 Å for the CFP/YFP pair (Patterson et al., 2000), the presence of FRET in individual cells would give a strong indication of interpeptide binding in the mammalian intracellular milieu. This indication is generally characterized by a low false-positive rate (Erickson et al., 2003), so that FRET assays provide a useful complement to yeast two-hybrid assays (Allen et al., 1995). […] SCFP (the signal derived from an image obtained with the CFP filter cube) is selective for CFP fluorescence and thereby gives an optical measure of NTB-CFP expression. Analogously, the SYFP signal, derived from preferential excitation and detection of YFP, estimates I-IIB-YFP levels. Finally, the SFRET signal reflects I-IIB-YFP fluorescence stimulated by FRET transfer from NTB-CFP, as well as secondary cross-talk signals. […]
Experiments were performed mostly as previously described (Erickson et al., 2001; Erickson et al., 2003). […] For donor-dequenching analysis, EEFF is calculated as EEFF=^1−CFPpre/CFPpost, where CFPpre and CFPpost are the CFP emissions before/after 3 min YFP photobleaching. […]

NTC: NH3 terminus of L-type channel α1C subunit, free peptide [reference compound]
Interaction with Gβ1 (yeast two-hybrid) (Gβ1): interact
Kd,EFF for I-IIC (FRET), in words (I-IIC): larger by an order of magnitude or more

B1: NTB: NH3 terminus of N-type channel α1B subunit, residues 1-95, expressed as free peptide (SEQ ID NO.: 1) (protein, listed as Homo sapiens)
chain: MVRFGDELGGRYGGPGGGERARGGGAGGAGGPGPGGLQPGQRVLYKQSIAQRARTMALYNPIPVKQNCFTVNRSLFVFSEDNVVRKYAKRITEWP
Interaction with Gβ1 (yeast two-hybrid) (Gβ1): interact
Kd,EFF for I-IIC (FRET), in words (I-IIC): larger by an order of magnitude or more
